Target: Human β2GPI domain deletion mutant DI-DIV (human)
Assay: ELISA; β2GPI or domain deletion mutants coated on Maxisorb plates at 1 µM overnight at 4 °C; Apo E-Biotin 50 nM, 1 h at RT; streptavidin-HRP, OD 450; % of binding to full length β2GPI

% binding: 42.5%
Substance: Human Apo E2, biotinylated (from UniProt P02649 19-317) (natural protein)
